Where a chain is given by its changes, count along the chain named.
T1: human PVRIG-mFc protein (Acro, PVG-H5253) (human, UniProt Q6DKI7 41-171, limits assumed)
T1 construct: bought protein
T1 sequence (looked up): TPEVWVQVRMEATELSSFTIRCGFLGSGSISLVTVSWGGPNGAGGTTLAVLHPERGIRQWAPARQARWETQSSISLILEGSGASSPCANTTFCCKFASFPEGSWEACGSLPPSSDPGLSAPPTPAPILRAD

T2: human PVRIG-his (AcroBiosystems, Cat NO. PVG-H52H4) (human, UniProt Q6DKI7 41-171, limits assumed)
T2 construct: also called human PVRIG protein
T2 sequence (looked up): T1 sequence (looked up)

T3: human PVRIG-mFc protein (Acro, PVG-H5253) (human, UniProt Q6DKI7 41-171, limits assumed)
T3 construct: extracellular domain; Bought protein; also called PVRIG-ECD-mFc; not shown: mouse Fc tag of the bought protein
T3 sequence (looked up): T1 sequence (looked up)

B1: PVRIG-A11 (Fc fusion)
chain: QLQLVESGGGLVQPGGSLRLSCAASGFTDDYYAIGWFRQAPGKEREGVSCISGSGGSTNYEDSVKGRFAISRDNAKNMVYLQMNDLKPEDTAVYYCAADPFWSAPCTGHNDRYFDVWGQGTLVTVSS
notes: heavy chain antibody VHH-hinge-CH2-CH3, human IgG1 constant part; not shown: human IgG1 hinge-CH2-CH3
B2: COM701-hIgG1 (antibody, V domains shown)
VH: QVQLVQSGAEVKKPGASVKVSCKASGYTFTDYNINWVRQAPGQGLEWMGYIYPYIGGSGYAQKFQGRVTMTRDTSTSTVYMELSSLRSEDTAVYYCAREDKTARNAMDYWGQGTLVTVSS
VL: DIQMTQSPSSLSASVGDRVTITCRVSENIYSNLAWYQQKPGKAPKLLIYEATNLAEGVPSRFSGSGSGTDFTLTISSLQPEDFATYYCQHFWGTPYTFGQGTKLEIK
notes: positive control; human IgG1 format
B3: SRF813-hIgG1 (antibody, V domains shown)
VH: QVQLVQSGAEVKKPGSSVKVSCKASGGTFSSAAISWVRQAPGQGLEWMGNIIPIVGIANYAQKFQGRVTITADESTSTAYMELSSLRSEDTAVYYCARDTGRGYTRHFWFDPWGQGTLVTVSS
VL: DIQMTQSPSSLSASVGDRVTITCRASQSISSYLNWYQQKPGKAPKLLIYAASSLQSGVPSRFSGSGSGTDFTLTISSLQPEDFATYYCQQSDILYTFGGGTKVEIK
notes: as for B2
B4: PVRIG-A118-H1 (Fc fusion)
chain: EVQLVESGGGLVQPGGSLRLSCAASETYFDLYVMGWYRQAPGKDRELVATITYTGSIYYVDSVKGRFTISRDNAKNSLYLQMNSLRAEDTAVYYCNADPSGLGRKVYWGQGTMVTVSS
notes: VHH-human IgG1 Fc format is stated for the parental VHH antibodies; not restated for the humanized variants; also called A118.VH1; not shown: human IgG1 hinge-CH2-CH3 (Fc)
B5: PVRIG-A118-H6 (Fc fusion)
chain: B4 chain with Y58K, Y59I, D72G, N73D
notes: VHH-human IgG1 Fc format is stated for the parental VHH antibodies; not restated for the humanized variants; also called A118.VH6; not shown: human IgG1 hinge-CH2-CH3 (Fc)
B6: PVRIG-A118-H4 (Fc fusion)
chain: B4 chain with Y58K, D72G, N73D, Y79S
notes: VHH-human IgG1 Fc format is stated for the parental VHH antibodies; not restated for the humanized variants; also called A118.VH4; not shown: human IgG1 hinge-CH2-CH3 (Fc)
B7: PVRIG-A118-H2 (Fc fusion)
chain: B4 chain with Y58K
notes: VHH-human IgG1 Fc format is stated for the parental VHH antibodies; not restated for the humanized variants; also called A118.VH2; not shown: human IgG1 hinge-CH2-CH3 (Fc)
B8: PVRIG-A118-H5 (Fc fusion)
chain: B4 chain with Y58K, D72G, N73D, L78V
notes: VHH-human IgG1 Fc format is stated for the parental VHH antibodies; not restated for the humanized variants; also called A118.VH5; not shown: human IgG1 hinge-CH2-CH3 (Fc)
B9: PVRIG-A118-H7 (Fc fusion)
chain: B4 chain with Y58K, D72G, N73D, Y94F
notes: VHH-human IgG1 Fc format is stated for the parental VHH antibodies; not restated for the humanized variants; also called A118.VH7; not shown: human IgG1 hinge-CH2-CH3 (Fc)
B10: PVRIG-A105-H2 (Fc fusion)
chain: EVQLVESGGGLVQPGGSLRLSCAASGRTFDRHTMTWFRQAPGKEREFVATASRIPGDTYYVDSVKGRFTISRDNAKNSLYLQMNSLRAEDTAVYYCAATSAYCSEVDCYEKGSWYDNWGQGTMVTVSS
notes: VHH-human IgG1 Fc format is stated for the parental VHH antibodies; not restated for the humanized variants; also called A105 VH2; not shown: human IgG1 hinge-CH2-CH3 (Fc)
B11: PVRIG-A105-H3a (Fc fusion)
chain: B10 chain with L79V, C103S, C108S
notes: VHH-human IgG1 Fc format is stated for the parental VHH antibodies; not restated for the humanized variants; also called A105.VH3a; not shown: human IgG1 hinge-CH2-CH3 (Fc)
B12: PVRIG-A105-H4 (Fc fusion)
chain: B10 chain with V61S, D62H
notes: VHH-human IgG1 Fc format is stated for the parental VHH antibodies; not restated for the humanized variants; also called A105.VH4; not shown: human IgG1 hinge-CH2-CH3 (Fc)
B13: PVRIG-A105-H3 (Fc fusion)
chain: B10 chain with L79V
notes: VHH-human IgG1 Fc format is stated for the parental VHH antibodies; not restated for the humanized variants; also called A105.VH3; not shown: human IgG1 hinge-CH2-CH3 (Fc)
B14: PVRIG-A105 (Fc fusion)
chain: EVQLVESGGGLVQAGGSLRLSCAASGRTFDRHTMTWFRQAPGKEREFVATASRIPGDTYYSHSVKGRFTISRDNAKNTVYLQLNNLKPEDTAVYYCAATSAYCSEVDCYEKGSWYDNWGQGIQVTVSS
notes: Alpaca VHH expressed as VHH-hinge-CH2-CH3 of human IgG1; not shown: human IgG1 hinge-CH2-CH3 (Fc)
B15: PVRIG-A105-H5 (Fc fusion)
chain: B10 chain with T122I, M123Q
notes: VHH-human IgG1 Fc format is stated for the parental VHH antibodies; not restated for the humanized variants; also called A105.VH5; not shown: human IgG1 hinge-CH2-CH3 (Fc)

Molecular target: T1, human PVRIG-mFc protein (Acro, …)
Assay: FACS competition, PVRIG-mFc binding to CHO-K1-CD112 cells, competitor CD112 on cells
Method: A working solution of human PVRIG-mFc protein (Acro, PVG-H5253) prepared with staining buffer, 1 μg/mL (four-fold concentration), was added into a 96-well plate (50 μL PVRIG-mFc working solution per well). […] The diluted antibodies were added to the well containing 50 μL of PVRIG-mFc. The plate was placed on a microplate shaker at 400 rpm for 1 minute to fully mix the antibodies and PVRIG-mFc proteins, and then incubated at 4° C. for 30 minutes. After the incubation, the cell suspension prepared above (100 μL) was added into the wells, gently mixed with the pipette tip and incubated at 4° C. for 30 minutes. After the incubation, the cells were washed twice with staining buffer (200 μL per well) and centrifuged at 350×g for 5 minutes to discard the supernatant. The PE goat anti-mouse IgG Fc antibody (Biolegend, 405337) was diluted 250 times with staining buffer, added into the washed wells (100 μL per well), mixed well, and stained at 4° C. for 30 minutes. After staining, the cells were washed twice with staining buffer, finally resuspended with 200 μL staining buffer and analyzed by flow cytometry (BD, Canto II). The weaker the fluorescence signal, the stronger the ability of the antibodies blocks the binding of CHO-K1 human CD112 cells to the PVRIG-mFc protein. An antibody binding curve was drawn with concentration of antibodies as the abscissa and the corresponding Mean Fluorescence Intensity (MFI) as the ordinate. The IC50 value of the antibodies and the AUC value of the binding curve were calculated by using a Four Parameter Logistic Fit (GraphPadPrism9). The smaller the IC50 value and AUC value, the stronger the ability of the antibodies competes with CHO-K1-CD112 cells to bind to human PVRIG-mFc protein. […] […] The smaller the percentage value, the stronger the blocking ability of the antibodies.

Binder	% AUC to COM701-hIgG4	% AUC to SRF813-hIgG1	% IC50 to COM701-hIgG4	% IC50 to SRF813-hIgG1
B1	78%	58.9%	62.8%	64.1%

Molecular target: T2, human PVRIG-his (AcroBiosystems, Cat …)
Assay: SPR (BIAcore), antibody captured on Protein A chip, human PVRIG-His analyte
Method: Biacore was used to detect the specific binding between anti-PVRIG antibody and human PVRIG protein. Protein A chip was used in the BIAcore assay. The time required for the chip to capture the diluted antibody and saturate the binding antigen to reach Rₘₐₓ (Maximum binding capacity, 50 RU) was measured by manual run. […] The affinity of antibody for antigen was measured by multi-cycle kinetics. In each cycle, the antibodies were injected prior to the injection of gradient concentraions of PVRIG proteins allowing the occurrence of antibody-antigen association and dissociation After each cycle, the Protein A chip was regenerated by Glycine, pH 1.5 (to remove the proteins on the chip). The affinity of antibody for antigen was calculated by BIAcore T200 analysis software.

Binder	Kd	koff	kon
B1	0.106 nM	0.00338 s⁻¹	3.18e+07 M⁻¹ s⁻¹
B2	0.319 nM	0.000651 s⁻¹	2.04e+06 M⁻¹ s⁻¹
B3	0.278 nM	0.000317 s⁻¹	1.14e+06 M⁻¹ s⁻¹

Molecular target: T3, human PVRIG-mFc protein (Acro, …)
Assay: FACS blocking of PVRIG-mFc binding to CHO-K1-CD112 cells; competitor CD112
Procedure, shortened: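 Zombie violet-stained CHO-K1-CD112 cells were added for 30 min at 4° C, then PE goat anti-mouse IgG Fc (1:250) was applied and mean fluorescence intensity read on a BD Canto II. Curves were fitted with four-parameter logistic models in GraphPad Prism 9. IC50 and curve AUC were reported as percentages of the reference antibody values.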

Binder	% AUC to COM701-hIgG4	% AUC to SO35-hIgG1	% AUC to parental Ab	% IC50 to COM701-hIgG4	% IC50 to SO35-hIgG1	% IC50 to parental Ab
B4	120%	62.4%	101%	141%	95.4%	100%
B5	119%	61.7%	100%	145%	97.8%	103%
B6	116%	60.4%	97.9%	141%	95.4%	100%
B7	142%	73.7%	120%	161%	109%	115%
B8	127%	66.1%	107%	144%	97.4%	102%
B9	124%	64.3%	104%	143%	97.1%	102%
B10				109%	92.3%	104%
B11	3530%	2040%	3100%	3060%	2590%	2930%
B12	112%	64.6%	98.4%	110%	93.2%	105%
B13	109%	62.9%	95.8%	109%	91.9%	104%
B14	114%	65.6%	100%	104%	88.3%	100%
B15				110%	93.4%	106%
